Measurements from patent US20180127504A1 (ACADEMIA SINICA, published 2018).

Experiments:
[1] = molecular target: T1, VEGFR2 on tumor vascular endothelium (frozen sections of human lung cancer specimens) (human, UniProt P35968); assay: immunofluorescence on frozen sections of human lung cancer, scFv detected by anti-E tag and rhodamine secondary antibody, CD31 co-staining
T1 construct: endogenous, on CD31-positive tumor vascular endothelium in frozen tissue sections; also called human tumor vasculature

[2] = molecular target: T2, c-Met-Fc control protein (UniProt P08581 25-932, limits assumed); assay: phage ELISA on coated MET-Fc, anti-M13-HRP detection
T2 construct: Bought control protein; also called Met-Fc (R&D); c-Met-Fe; not shown: Fc part of the bought fusion protein; not described
T2 sequence (P08581 25-932 limits assumed): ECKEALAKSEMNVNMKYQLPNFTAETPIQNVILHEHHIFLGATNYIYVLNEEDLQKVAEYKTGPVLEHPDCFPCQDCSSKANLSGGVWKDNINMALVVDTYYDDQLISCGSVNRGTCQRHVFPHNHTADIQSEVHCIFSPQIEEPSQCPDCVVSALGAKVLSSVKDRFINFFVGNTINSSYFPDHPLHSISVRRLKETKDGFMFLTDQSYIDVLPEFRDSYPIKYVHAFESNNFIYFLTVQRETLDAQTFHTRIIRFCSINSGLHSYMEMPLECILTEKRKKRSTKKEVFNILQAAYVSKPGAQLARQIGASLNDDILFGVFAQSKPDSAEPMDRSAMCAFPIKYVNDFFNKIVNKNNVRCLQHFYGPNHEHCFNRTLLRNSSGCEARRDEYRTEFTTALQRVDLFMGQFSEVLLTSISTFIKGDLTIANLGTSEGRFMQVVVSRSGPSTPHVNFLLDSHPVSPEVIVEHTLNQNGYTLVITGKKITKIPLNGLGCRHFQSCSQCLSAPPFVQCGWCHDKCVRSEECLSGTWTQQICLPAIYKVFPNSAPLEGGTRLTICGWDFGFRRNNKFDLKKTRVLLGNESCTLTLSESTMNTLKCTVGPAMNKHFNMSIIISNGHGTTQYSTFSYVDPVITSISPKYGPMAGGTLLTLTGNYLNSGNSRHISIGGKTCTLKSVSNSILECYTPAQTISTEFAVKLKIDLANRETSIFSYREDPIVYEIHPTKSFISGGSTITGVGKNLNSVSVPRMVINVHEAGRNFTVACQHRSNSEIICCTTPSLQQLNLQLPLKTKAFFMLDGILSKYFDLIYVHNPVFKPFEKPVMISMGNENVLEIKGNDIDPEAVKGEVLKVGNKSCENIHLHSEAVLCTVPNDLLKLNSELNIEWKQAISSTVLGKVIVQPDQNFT
Procedure: The selected phages were further examined by ELISA screening. The 96-well plates were coated with […] of VEGFR2-Fc, Met-Fc (R&D), or BSA (Sigma) protein in 0.1 M sodium bicarbonate overnight at 4° C. After blocking with 1% BSA in PBS (w/v) for 2 hr at room temperature, 70-randomly selected phage clones were added to the plates at a 1:2 dilution in 1% BSA, and incubated for 1 hr at room temperature. Following washes with PBST, the plates were incubated with a 1:2000 dilution of horseradish peroxidase (HRP)-conjugated mouse anti-M13 phage antibody (GE) for 1 hr. After washing with PBST, the colorimetric reaction was developed with the peroxidase substrate ortho-phenylenediamine (OPD; Sigma) plus H₂O₂ for 15 min, and then terminated by the addition of 3 N HCl. The absorbance at 490 nm was determined using a microplate reader (SpectraMax, Molecular Devices). Plasmid DNA of positive clones were isolated and sequenced using the pCANTAB5 sequencing primer set.
(§1) After four rounds of affinity selection (biopanning), the titer of bound phage increased by as much as 3,455-fold (FIG. 1A).

[3] = molecular target: T3, VEGFR2 on the cell surface of human umbilical vein endothelial cells (HUVEC) (human, UniProt P35968 20-1356); assay: flow cytometry on HUVECs, 1x10^10 cfu phage, anti-M13 and PE-labelled secondary antibody
T3 construct: Endogenous receptor of human cells; also called cell-surface VEGFR2; cellular VEGFR2
Procedure: About 1×10⁴ HUVEC were incubated with the selected anti-VEGFR2 phage clones at 4° C. for 1 hour in FACS buffer (PBS containing 1% fetal bovine serum). After the cells were washed with FACS buffer, they were first incubated with mouse anti-M13 phage Ab for 1 hr at 4° C., and then with R-phycoerythrin-conjugated goat anti-mouse IgG (Jackson Immuno Research) for 30 min at 4° C. Flow cytometry was performed with a FACSCantoII (BD), and emission fluorescence intensity was measured with FACS Diva software (BD) to quantitatively compare binding affinities.
as §1

Binder | binding result [1] | binding result [2] | binding result [3]
R2S29 (scFv, V domains shown, also called soluble anti-VEGFR2 scFv from phage clone R2PC29) VH: QVQLQQSGAEMKKSGSSVKVSCKASGGNFISKGISWVRQAPGQGLEWMGGIIPLFGTGNYAQKFQGRVTITADESTTTVYLQLTSLTPEDTAMYFCATADVDYSDSLEAFDMWGQGTMVTVSS VL: DIVMTQSPSSLSASVGDRVTITCRASQSINNYLNWYQQKPGKAPNLLIYGASSLQSGVPSRFRGSGSGTDFTLTISSLQPEDFATYYCQQSYSTPLFGQGTKLEIK | binds | – | –
R2PC29 (scFv, V domains shown, also called anti-VEGFR2 scFv phage clone 29) VH: QVQLQQSGAEMKKSGSSVKVSCKASGGNFISKGISWVRQAPGQGLEWMGGIIPLFGTGNYAQKFQGRVTITADESTTTVYLQLTSLTPEDTAMYFCATADVDYSDSLEAFDMWGQGTMVTVSS VL: DIVMTQSPSSLSASVGDRVTITCRASQSINNYLNWYQQKPGKAPNLLIYGASSLQSGVPSRFRGSGSGTDFTLTISSLQPEDFATYYCQQSYSTPLFGQGTKLEIK | – | no binding (tested: 1x10^9 cfu) | binds
R2PC28 (scFv, V domains shown, also called anti-VEGFR2 scFv phage clone 28) VH: EVQLVESGGALVQPGGSLRLSCVGSEFTFSHYNLHWVRQAPGKGLEWLAVISDDGRNKYYGDSVKGRFTISRDNSKNTLYLQMNGLRAEDTAVYYCARVPTVWRGGVYDIWGQGTMVTVSS VL: EIVLTQSPATLSLSPGERATLSCRASQSVGSYLAWYQQRPGQPPRLLIYDASNRATGVAARFSGSGSGTDFTLTIDSLEAEDAATYYCHQSSSLPRTFGQGTKLEIK | – | no binding (tested: 1x10^9 cfu) | binds
R2PC8 (scFv, V domains shown, also called anti-VEGFR2 scFv phage clone 8) VH: QVQLVQSGGGLVKPGGSLRLSCAASGFTFSSYSMSWVRQAPGKGLEWVSSISSSSSYIYYADSVKGRFTISRDNAKNSLYLQMNSLRAEDTAVYYCARSTDAFDIWGQGTMVTVSS VL: DIVMTQSPSSLSASVGDRVTITCRASQRISNYLNWYQHKSGEDPKLLIYAASSLQSGVPSRFSGSGSGTDFTLTISSLQPEDFATYYCQQYDRYPPTFGQGTKLEIK | – | no binding (tested: 1x10^9 cfu) | binds
R2PC12 (scFv, V domains shown, also called anti-VEGFR2 scFv phage clone 12) VH: QVNLRESGGGLVKPGGSLRLSCAASGFTFGSYTMNWVRQAPGKGLEWVASITSGSSYIFYTDSVKGRFTISRDNSRSSLFLQMNSLRAEDTAIYYCARGSASAFDIWGQGTMVTVSS VL: DIQMTQSPSSLSASVGDRVTITCKASDDIINYLNWYQQKPGEAPKLLIYDASILETGVPSRFSGSGSGTDFTFTISSLQPEDIATYYCQQYDILPLTFGGGTKLEIK | – | no binding (tested: 1x10^9 cfu) | binds
